From PMC8080530, “Glucocorticoid receptor Thr524 phosphorylation by MINK1 induces interactions with 14-3-3 protein regulators” (The Journal of Biological Chemistry, 2021)
No end group written: not given here. *: point of attachment. FITC = O=C1OC2(c3ccc(O)cc3Oc3cc(O)ccc32)c2ccc(NC(=S)*)cc21

Legend:
[1] = target: GFP-GR T524A S617A, full-length GR double mutant (human) (UniProt P04150); assay: co-IP; GFP-Trap agarose beads on RIPA lysates of transfected U2OS or HEK293 cells stimulated with forskolin or calyculin A; blot with anti-pan 14-3-3 antibody
GFP-GR T524A S617A, full-length GR double mutant (human), sequence (P04150 whole entry T524A/S617A): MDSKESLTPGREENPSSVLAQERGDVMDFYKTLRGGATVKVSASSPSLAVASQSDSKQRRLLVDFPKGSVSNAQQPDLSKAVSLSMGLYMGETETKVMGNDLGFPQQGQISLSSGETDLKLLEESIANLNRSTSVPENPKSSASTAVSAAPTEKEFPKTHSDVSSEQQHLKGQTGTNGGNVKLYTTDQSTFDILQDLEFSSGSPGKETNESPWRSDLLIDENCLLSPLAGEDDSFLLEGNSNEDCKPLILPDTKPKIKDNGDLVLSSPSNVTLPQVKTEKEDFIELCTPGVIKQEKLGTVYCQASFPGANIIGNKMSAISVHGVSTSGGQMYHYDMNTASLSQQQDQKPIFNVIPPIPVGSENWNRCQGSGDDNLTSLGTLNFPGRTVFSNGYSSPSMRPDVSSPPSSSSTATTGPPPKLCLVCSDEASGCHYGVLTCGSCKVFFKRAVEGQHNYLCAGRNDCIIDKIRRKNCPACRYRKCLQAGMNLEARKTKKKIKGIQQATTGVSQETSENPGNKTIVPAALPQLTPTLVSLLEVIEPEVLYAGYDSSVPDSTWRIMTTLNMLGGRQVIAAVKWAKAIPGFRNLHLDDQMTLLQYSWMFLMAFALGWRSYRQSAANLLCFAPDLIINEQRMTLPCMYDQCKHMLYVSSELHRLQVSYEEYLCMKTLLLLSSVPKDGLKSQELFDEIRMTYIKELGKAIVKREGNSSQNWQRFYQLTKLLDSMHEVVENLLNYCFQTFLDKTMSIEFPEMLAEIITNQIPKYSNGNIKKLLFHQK

[2] = target: T1, human 14-3-3ζ, full length, 6His-Linker-h14-3-3 (human, UniProt P63104 1-245); assay: SPR
T1 chain: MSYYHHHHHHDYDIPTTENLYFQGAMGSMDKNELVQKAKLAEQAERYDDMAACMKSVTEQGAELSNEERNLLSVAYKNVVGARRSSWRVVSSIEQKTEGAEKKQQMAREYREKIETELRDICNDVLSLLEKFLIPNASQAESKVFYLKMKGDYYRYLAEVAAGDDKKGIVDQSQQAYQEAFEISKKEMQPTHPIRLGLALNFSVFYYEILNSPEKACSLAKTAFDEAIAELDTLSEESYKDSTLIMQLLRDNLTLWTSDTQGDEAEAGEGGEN

[3] = target: T1, human 14-3-3ζ, full length, …; assay: FP

“14-3-3 proteins, endogenous (detected with anti-pan 14-3-3 antibody) (from UniProt P63104 1-245) (natural protein)” was tested, and the decrease of the interaction against the WT GR [1] was 35%.

B1: GR_pT524-pS617, 31-mer doubly phosphorylated peptide used for SPR and crystallography (peptide)
peptide: KTIVPATLPQLTPGGGGGRSYRQSSANLLCF
modifications: also: phosphothreonine at T524 and phosphoserine at S617, places in chain not given here
With B1 the Kd [2] was 30 nM.

B2: GR_pS83-pT524, FITC-labelled 31-mer doubly phosphorylated peptide (peptide)
peptide: {FITC}-DLSKAVSLSMGLYGGGGGKTIVPATLPQLTP
modifications: also: phosphoserine at S83 and phosphothreonine at T524, places in chain not given here
B2 showed a Kd [3] of 900 nM.
